# Measured values taken from patent US20050136462.
# Legend:
# [1] = tested on: Nb.BsaI N441D/R442G (A11) N441D/R442G; assay: cleavage_in_vitro; settings: bottom-strand nicking; estimated in cell extract
# Nb.BsaI R442G R442G = assay: cleavage_in_vitro; settings: predominant nicking; about 8-fold lower than N441D/R442G
sequence,measurement,setting,value
GGTCTCNNNNN (double strand) [BsaI site (in supercoiled pUC19)],activity (units/g wet cells),[1],800000
same,activity (units/g wet cells),Nb.BsaI R442G R442G,100000
